Source: patent publication US20220144957A1 (IMMUNECENT BIOTECHNOLOGY, published 2022)
Read-outs that look alike come from different tables or passages of the source.

T1: human IFNAR1, full length (IFNAR1-aa1-557) (human, UniProt P17181 28-557)
T1 sequence (looked up): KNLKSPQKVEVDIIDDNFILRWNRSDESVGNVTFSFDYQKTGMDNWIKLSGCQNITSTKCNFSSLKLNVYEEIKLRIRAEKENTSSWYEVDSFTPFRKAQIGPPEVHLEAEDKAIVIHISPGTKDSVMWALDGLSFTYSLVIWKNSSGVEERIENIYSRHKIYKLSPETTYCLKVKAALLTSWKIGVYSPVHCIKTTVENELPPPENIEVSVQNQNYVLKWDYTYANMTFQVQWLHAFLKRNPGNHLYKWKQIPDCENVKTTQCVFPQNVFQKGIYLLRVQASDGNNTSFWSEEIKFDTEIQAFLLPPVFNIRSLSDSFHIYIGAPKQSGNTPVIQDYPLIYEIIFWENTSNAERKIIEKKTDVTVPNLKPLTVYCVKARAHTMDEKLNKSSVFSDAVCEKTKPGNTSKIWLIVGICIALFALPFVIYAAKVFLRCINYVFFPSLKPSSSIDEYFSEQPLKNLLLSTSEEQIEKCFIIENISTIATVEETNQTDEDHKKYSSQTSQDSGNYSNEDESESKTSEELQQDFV

T2: human/mouse chimeric IFNAR1 variant IFNAR1-m149-214 (human, with residues 149-214 replaced …, UniProt P17181 28-557)
T2 construct: expressed on 293T cells
T2 chain: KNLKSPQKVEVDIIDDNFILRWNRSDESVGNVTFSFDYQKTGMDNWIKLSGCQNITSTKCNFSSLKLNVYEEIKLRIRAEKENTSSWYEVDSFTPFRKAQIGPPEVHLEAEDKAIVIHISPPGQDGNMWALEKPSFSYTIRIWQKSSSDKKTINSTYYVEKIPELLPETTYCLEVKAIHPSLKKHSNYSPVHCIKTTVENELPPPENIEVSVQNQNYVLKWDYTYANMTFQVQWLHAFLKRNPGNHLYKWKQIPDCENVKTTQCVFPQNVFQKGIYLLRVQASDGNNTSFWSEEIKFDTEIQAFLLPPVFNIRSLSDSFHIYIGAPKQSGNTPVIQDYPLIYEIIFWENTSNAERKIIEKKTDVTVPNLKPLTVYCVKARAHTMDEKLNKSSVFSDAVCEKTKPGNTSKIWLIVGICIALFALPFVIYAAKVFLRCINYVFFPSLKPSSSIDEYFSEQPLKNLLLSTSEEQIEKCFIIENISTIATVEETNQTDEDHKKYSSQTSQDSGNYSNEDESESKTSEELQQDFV


Legend:
[1] = target: T1, human IFNAR1, full length …; assay: cell-based or functional assay
[2] = target: T2, human/mouse chimeric IFNAR1 variant …; assay: flow cytometry, 293T cells overexpressing IFNAR1-m149-214, MFI
Protocol: (§1) After the incubation, the cells were centrifuged and re-suspended with 200 μL of FACS buffer, before next centrifugation and re-suspension.
(§2) PE-labeled goat anti-mouse IgG antibody (Biolegend) diluted in FACS buffer at 1:400 was added to each well. The cells were re-suspended and incubated at 4° C. for 30 min in the dark. After the incubation, the plate was centrifuged, the supernatant was discarded, and the cells were washed once as described above and re-suspended by adding 200 μL FACS buffer. Finally, the re-suspended cells were analyzed using a flow cytometer Guava (Millipore) for cellular GFP and PE signals.

[3] = target: T2, human/mouse chimeric IFNAR1 variant …; assay: as above
Protocol: as §1, §2

| fold decrease in percentage of GFP positive reporter cells with serum from SLE patients [1] [fold] | binding result [2] | binding result [3] | Binder |
| --- | --- | --- | --- |
| ~3 | binds |  | anti-human IFNAR1 monoclonal antibody 10C5 (antibody, V domains shown, Mouse monoclonal antibody from hybridoma CGMCC No. 16287) VH: QVQLQQPGTELVKPGSPVKLSCKASGYTFTSFWLNWVQQRPGRGLEWIGKIDPSDSEIRYNQKFKDKATLTVDKSSNTAYIQLSSLTSEDSAVYYCARGGGIYYDYDGAMDYWGQGTSVTVSS VL: DIQMTQSSSSFSVSLGDRLTITCKASEVIYNRLAWFQQKPGNAPRLLISGATSLETGVPSRFSGSGSRKDYTLSISSLQTEDVATYYCQQYWSSPFTFGSGTKLEIK |
| ~3 |  | binds | anti-human IFNAR1 monoclonal antibody 7G4 (antibody, V domains shown, Mouse monoclonal antibody from hybridoma CGMCC No. 16286) VH: QVQLQQPGAELVKPGAPVKLSCKASGYTFTSYWMNWVRQRPGRGLEWIGKIDPSDSETHFNQKFRDKATLTVDKSSTTAYIQLSSLTSEDSAVYYCARGGRISFDYDAALDYWGQGTSVTVSS VL: DILMTQSSSSFSVSLGDRVTITCKSSEVIYNRLAWFQQKPGNAPRLLISGATTLESGFPSRFSGSGSGKDYTLSITSLQIEDVSTYYCQQYWNKPFTFGSGTKLEVK |
